The DeepSol protein solubility set

Assay: soluble on expression in E. coli; label from the status in PepcDB or PDB records

| Sequence | soluble on expression in E. coli |
| --- | --- |
| MSLKIIIAGAGNVGTHLAKLLSREKQDIILMDDDEEKLSALSANFDLLTVTASPSSISGLKEVGVKEADLFIAVTPDESRNMTACMLATNLGAKKTVARIDNYEYLLPKNKEFFRKLGVDSLIYPEMLAAKEIVSSMRMSWVRQWWEFCGGALILIGTKMREKAEILNIPLHQLGAPDIPYHVVAIKRGTETIIPRGDDVIKLHDIVYFTTTRKYIPYIRKIAGKEDYADVRNVMIMGGSRIAVRTAQYVPDYMQVKIVDNDINRCNRLTELLDDKTMIINGDGRDMDLLIEEGLKNTEAFVALTDNSETNILACLAAKRMGVEKTVAEVENIDYIGMAESLDIGTVINKKMIAASHIYQMMLDADVSNVKCLTFANADVAEFTVPAGAKITKNLIKDLGLPKGTTIGGMIRNGEGVLVTGDTLIRPGDHVVVFCLSMMIKKIEKFFNEGHHHHHH | soluble |
| MGSDKIHHHHHHMNARVNLNGLGTLHPMTSTRIATGTSGLDTILRGGLPSNRLYLLEGQPGSGKTTLALQFLLEGAAKGESCLYITLSETLDELQEVAQSHGWSLDALHIFELASAEAFLGDGRQQSILHPWELELDGTVKLIQAEVDRVKPQRVVFDSLSELRLLAQDSLRYRRQVLALKQFFAPRNITVLLVDDLTGTSEGRDSHLHSLCHGVVSLERLTLDFGAARRRMQVQKLRGVDFIAGYHDLSILRGGLRIYPRLIASDHHVTFIGDAVSSGVQEVDDLLHGGPLRGTSTLLTGPAGSGKTNLALQYVAAACARGEHCCIFEFDERTGTLLARAESLGLDLRRHLESGLLELRQMDPAELSPGEFAWQVRASVEQRNCRLLVIDSLNGYLSSMPQEKQLMLQMHELLSYLNQSGVTTFLINPQHGLVGTMSTGNLNISYMADTVILFRFFEAQGRIRKALSVIKNRSGAHEDAIRELRIGNSGIRLSAPLNDFHGVLTGTPHFIGDEAPLLGNDLARR | not soluble |
| MGSDKIHHHHHHMWHLFLECAFKIFLFEHSFKYFLNNFSKLGRLIIPSLKKTQIMRNAEFDRKAVLCAAMSVFTAKGYAKTSMQDLTKATGLHPGSIYCAFENKKGLLIAAIGQYQDERHQQFVRLFDNDAPCLSNLSNYLTEIVDECLSQDMSKACLLTKTLNEVGSQDEEIKTLITANLTAWQAALTAVFSLAQKNNEIDSQANSQELAQYLMMGIYGLRTFAHTHKDGQQLAQLAKKLLADVSR | not soluble |
| RPVREVGMYNMAMLMRSTGQSSFGQSVRIAENFLNEFPRSSHREQMAAILVESYFTGKDYNSSLRSIQKIAQPTASILAAKQFVLNRMAEQKEAAGYDSEALSFVSSSISMGNKGEYFPEAYFLRGNLRYRAGDFPTAAADYRAYISAAGDRDAANLPLGYYRLGYSLFNAERYDMALEAFKEYVSRSGIAPNLSADAYARIGDCRYMKRDFHGAREAYSMAYRVYPSGGDYALLRRARLEGLAKQYADQIQTLDKLIREFPDSRHLTAALYEKGCGAVLSGKHNVAEEAFNAVVKRSPDSREARQSSLQLGLLYYNTGRTKEAIRTYQRIIDRYPRSEETTVALSDLRSIYLEEDRIDEYSTYVRGLKDKVSIAPSETEQLGFLSAERKYRRRQPDARRDLEAYLERYPQGSDRHKAELYLADLDYQAGNADAAYNRYSRLVNSPGLPEDYKIDARLRLGRMQYERKEYKAALQSFQSVLDTDGAEAVRDQAVQGVTESAYADKDYRRVIDVIAGLKNQAALPHTLRLYRAKSYQALKMNREAIADYELLAEDFSTATGAEAVVMQAQLEMEAKRLSKAKSILEKFIAKSTPQQYWLARGFILLSDIYKKEGDTFTARQYLESLEKNYPNHEDDIHEQIAQRLE | not soluble |
| MGSDKIHHHHHHMLNFTVGPVMSSEEVRAIGAEQVPYFRTTEFSSTMLENEKFMLEYAKAPEGSKAVFMTCSSTGSMEAVVMNCFTKKDKVLVIDGGSFGHRFVQLCEIHEIPYVALKLEHGKKLTKEKLYEYDNQNFTGLLVNVDETSTAVLYDTMMIGEFCKKNNMFFVCDCVSAFLADPFNMNECGADVMITGSQKVLACPPGISVIVLAPRGVERVEKSKVRTMYFDLKDALKNQERGQTPFTPAVGILLQINERLKEIKKHGGADAEVARIASQAADFRAKIKDLPFELVSESPANGVTSVHPTTANAYDIFLKLKDEYGIWICPNGGEMKDTIFRVGHIGALTHEDNTTLVNAFKDLQKRNLL | not soluble |
| MSSKIFCKSWGAEYIAADVVRFRLWATGQQKVMLRLAGKDQEMQANGDGWFTLDVAGVTPGTEYNFVLSDGMVVPDPASRAQKTDVNGPSYVVDPGSYTWRNTGWKGSRWEQAVVYEMHTGTFTPEGTFRAAIAKLPYLAELGVTVIEVMPVAQFGGERGWGYDGVLLYAPHSAYGTPDDFKAFIDAAHGYGLSVVLDIVLNHFGPEGNYLPLLAPAFFHKERMTPWGNGIAYDVDAVRRYIIEAPLYWLTEYHLDGLRFDAIDQIEDSSARHVLVEIAQRIREDITDRPIHLTTEDSRNIISLHPRDQDGNAPLFTAEWNDDFHNAVHVFATGETQAYYNDFADAPEKHLARALAEGFAYQGEISPQTGEPRGVKSTGQPPVAFVDFIQNHDQVGNRAQGDRLITLAGAERTKVLLATLLLSPHIPLLFMGEEYGESRPFLFFTDFHGDLARAVREGRAKEFADHAGENVPDPNAPETFQRSKLNWKQQHSEEGKAWLAFTRELLLLRQKHIVPLLSAARESSGTVLQTAPGFIAVSWRFPGGTLSLALNISATTVLLPDLPGKTLFAWPNESTGSLSQHSLIVRLAQGESAS | not soluble |
| MIFDGHSDTWADVTIRRLNGEKDVFRRIHLDNFKRANIEGAIFVIWIDPPYDKEPEKRVKQIISSIKDEIEDMKDVVNIVKKYSDIDKGISENKINILIGLEGLSHIGRNIDLLDYFYKEVGARHASLTWNEQNELATGCLGDENRGLTEIGKKAVNKMEKLGMIVDVSHLNEKSFWDLMSVASKPVIASHSNARSLCDAKRNLTDNQLKEISNTGGLVGINSFRGFTNSNPKKQDLIHLVDHIDYMVNLIGIEHVSFGFDFSDYLGKETIGSFTGNASVPSVDGLESTHTAQNIVVELENRGYKKKDIELISSGNFYRLFKDILK | not soluble |
| MLSEASSVQSPTVSIRRRTCVVCGSSTLNSYVTSFTRVPDKQEQWVTVLANGDAGFEDQLKASLATGRKYICYDHFDRQYFAQRKTDDGFELIRNRNPMAFKNATFIRHVDLRSTSSFVPDDSSEEPIPAKRLKIMSDLKGRGGELDPNSMTFLMKTIFLHVKKTMEEADEARRKHEIKEELD | not soluble |
| MGDASTQLSSYVKQVQTGHKPSTKEIVRFSKLFEDQLALEHLDRPQLVALCKLLELQTFGTNNLLRFQLLMKLKSIKADDEIIAKEGVTALSVSELQAACRARGMRSLGLTEEQLRQQLTEWQDLHLKENVPPSLLLLSRTFYLIDVKPKPIEIPLSGEAPKTDILVELPTFTESKENMVDLAPQLKGTKDEDFIQPPPVTSSPITPSTPISLPKGPITSSEEPTLQAKSQMTAQNSKASSKGA | soluble |
| PNISDIIEQYLKQVLNMSDQDIVEIKRSEIANKFRCVPSQINYVINTRFTLERGYIVESKRGGGGYIRIMKVKTKSEAQLIDQLLELIDHRISQSSAEDVIKRLMEEKVISEREAKMMLSVMDRSVLYIDLPERDELRARMLKAMLTSLKYKLEI | soluble |
| MSHLDEVIARVDAAIEESVIAHMNELLIALSDDAELSREDRYTQQQRLRTAIAHHGRKHKEDMEARHEQLTKGGTIL | soluble |
| MEWKGRDVISIRDFSKEDIEVVLSTAERLEKEMKEKGQLEYAKGKILATLFFEPSTRTRLSFESAMHRLGGSVIGFAEASTSSVKKGESLRDTIKTVEQYSDVIVIRHPKEGAARLAAEVADIPVINAGDGSNQHPTQTLLDLYTIKKEFGTIDGLKIGLLGDLKYGRTVHSLAEALAFYDVELYLISPELLRMPKHIVEELRERGMKIVETTKLEEVIGELDVLYVTRIQKERFPDEQEYLKVKGSYQVNLKILENVKDSLRIMHPLPRVDEIHPEVDKTKHAIYFKQVFNGVPVRMALLALVLGVI | soluble |
| GPLGSKDTRPQTDDVLNTKGNTFEDFYLKRELLMGIFEAGFEKPSPIQEEAIPVAITGRDILARAKNGTGKTAAFVIPTLEKVKPKLNKIQALIMVPTRELALQTSQVVRTLGKHCGISCMVTTGGTNLRDDILRLNETVHILVGTPGRVLDLASRKVADLSDCSLFIMDEADKMLSRDFKTIIEQILSFLPPTHQSLLFSATFPLTVKEFMVKHLHKPYEINLMEELTLKGITQYYAFVEERQKLHCLNTLFSKLQINQAIIFCNSTNRVELLAKKITDLGYSCYYSHARMKQQERNKVFHEFRQGKVRTLVCSDLLTRGIDIQAVNVVINFDFPKTAETYLHRIGRSGRFGHLGLAINLINWNDRFNLYKIEQELGTEIAAIPATIDKSLYVAENDET | soluble |
| MVEKEETKKRARSSSSSSSSSSGSSSSGSSSSGSRSSSSSSSGRSRSRSPRRRDTRPPARGGRSRSPIRRGSPPRGARADRDRPMRPSPSPPRRRRPSPSPPRRDRRDRSGSRQRRRASPRRSPAARSASPAKRVVIKNLSRNVLKTHLEEIFSIYGAIKNVDLPPDRFHNHVHRGYGYVEYDNLEDAEKSIKHMDGGQIDGMAVHVEMTIGRQSVPFQRRSSPFRRRSPPPRDRMSPMRRGGRSPPPHRRRSPMGGRGSGANNMPLGGPNRFRRASRSRSPAGRRSRS | soluble |
| MAHHHHHHMTSPMLMAAENFCFTPQSHFMVKTPKSERAHQCSKLYNEAFVVSNRTGLRSILRANESGRSYLNGGGIIARVWALEEALKAFFNLRKKKFVWGCDQSMWALLLIWSITRPENIKPALLVRRGLISLDYETRYFLYPSKTMVMSGMILHFAGPVHVWKRTLPQYLSEINWYRALSNSSPKREASIRLLKNSTVEMYTFWGSRKDAKLSTVCPISNISDPSWLSGQLKK | soluble |
| REQFGRDVMVVVDLSGSMAEKDFTSTNGLKISRLDAVKKVLNDFVKTRKGDRLGLILFGDAAFVQTPFTADHKVWLDLLNQTHVEMAGKSTHLGDAIGLTIKRFEDSNNSQPLSTTSREKVAIILTDGNDTDSYVPPMDAAKVAKVKGVRIHMIAIGDPQTVGEQALDMDTINTIADASGGQAFQALNQDELINAYAEISKLEPQLYQSTTYRT | not soluble |
| MGSCCSCLNRDSVPDNHPTKFKVTNVDDEGVELGSGVMELTQSELVLHLHRREAVRWPYLCLRRYGYDSNLFSFESGRRCQTGQGIFAFKCSRAEEIFNLLQDLMQCNSINVMEEPVIITRNSHPAELDLPRAPQPPNALGYTVSSFSNGCPGEGPRFSAPRRLSTSSLRHPSLGEESTHALIAPDEQSHTYVNTPASEDDHRRGRHCLQPLPEGQAPFLPQARGPDQRDPQVFLQPGQVKFVLGPTPARRHMVKCQGLCPSLHDPPHHNNNNEAPSECPAQPKCTYENVTGGLWRGAGWRLSPEEPGWNGLAHRRAALLHYENLPPLPPVWESQAQQLGGEAGDDGDSRDGLTPSSNGFPDGEEDETPLQKPTSTRAAIRSHGSFPVPLTRRRGSPRVFNFDFRRPGPEPPRQLNYIQVELKGWGGDRPKGPQNPSSPQAPMPTTHPARSSDSYAVIDLKKTVAMSNLQRALPRDDGTARKTRHNSTDLPL | soluble |
| MYQKKDRACRIRRKQCKLFGDWQKSVITQLKTIQDKNISIHKAFGCMIRLAANLFYAHSKIIHFMSEEAGEDAQRKAAEREAKKAEVRKRLEEAGNKKKAKKGFLTPERKKKLRKLLMVKAAEDLKRQQLLKEQERQKALADRTISLPNVDSIDDKGQLEKIYNDLWARLTQLEEEKYDINYVVSQTEAEINSLTIEVNDLRGKFVKPSLKKVSKYDNKFKKSGESKAGTKEDFRANLKIVKKDVMEAIVNVKKKDDKPDWSKKNKDAKAEDSAPAAVAPEAEPVAEEAEAEPEAEEEEGEEEEEE | not soluble |
